The source of these data is publication doi:10.1101/2025.08.03.668247, “The structure of Egalitarian in complex with the K10 mRNA localization signal reveals a modular binding surface required for function”.

In general, Kd refers to the concentration at which binding is half-saturated. For orientation: IC50 means the concentration that gives 50% inhibition.

The target of data set [1] is T1, GST-Egl512-819 (Drosophila melanogaster, UniProt Q9W1K4 512-819).
T1 sequence: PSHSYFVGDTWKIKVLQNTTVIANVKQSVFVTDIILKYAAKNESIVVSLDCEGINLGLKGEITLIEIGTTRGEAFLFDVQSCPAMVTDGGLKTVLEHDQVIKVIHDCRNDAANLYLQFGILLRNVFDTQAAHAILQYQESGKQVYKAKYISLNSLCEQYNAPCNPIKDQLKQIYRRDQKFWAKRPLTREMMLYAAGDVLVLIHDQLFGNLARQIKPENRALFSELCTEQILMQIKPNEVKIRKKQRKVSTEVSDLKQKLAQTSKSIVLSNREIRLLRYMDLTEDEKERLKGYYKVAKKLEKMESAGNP
The data set is described as follows: competition; vs FAM-K10 TLS; none at 40,000-fold excess; FA: 20 mM HEPES-NaOH pH 7.5, 100 mM NaCl, 10% glycerol, 20 C, 10 nM FAM-RNA; competition: 150 nM Egl512-819 + 10 nM FAM-K10 TLS, same buffer. Particulars: protein: recombinant; tags: N-terminal GST (TEV site).

The target of data set [2] is T1, GST-Egl512-819. The experiment in a line: fluorescence anisotropy; FA: 20 mM HEPES-NaOH pH 7.5, 100 mM NaCl, 10% glycerol, 20 C, 10 nM FAM-RNA; competition: 150 nM Egl512-819 + 10 nM FAM-K10 TLS, same buffer. Particulars: protein: recombinant, tags: N-terminal GST (TEV site). A general note: In fluorescence polarisation assays a small probe gives low polarisation when free and higher when bound to something large.

Data set [3] deals with T1, GST-Egl512-819. The data set is described as follows: competition; vs FAM-K10 TLS; FA: 20 mM HEPES-NaOH pH 7.5, 100 mM NaCl, 10% glycerol, 20 C, 10 nM FAM-RNA; competition: 150 nM Egl512-819 + 10 nM FAM-K10 TLS, same buffer. Particulars: protein: recombinant, tags: N-terminal GST (TEV site).
Data set [4] addresses T1, GST-Egl512-819. The data set is described as follows: fluorescence anisotropy; listed as K10-10nt; FA: 20 mM HEPES-NaOH pH 7.5, 100 mM NaCl, 10% glycerol, 20 C, 10 nM FAM-RNA; competition: 150 nM Egl512-819 + 10 nM FAM-K10 TLS, same buffer. Particulars: protein: recombinant; tags: N-terminal GST (TEV site); label: 5'-FAM in direct assay; hairpin, 3' overhang 10 nt.
The mark [5] stands for this setting: label: 5'-FAM in direct assay, hairpin.

Consider AGGCAGTTTCTGGTACTCAG (ssDNA) [ssDNA], for which the binding result in the data set with GST-Egl512-819 [1] was “no binding”.
Turning to CUUGAUUGUAUUUUUAAAUUAAUUCUUAAAAAUACAAUUAAG (structured_RNA) [K10-Delta b1b2], in the data set with GST-Egl512-819 [2] (setting [5]), the Kd turned out to be 172 ± 18 nM.

B1: bcd_VbS (structured_RNA)
RNA: AAAUGUUUCUCUUGGGCGUAAUCUCAUACAAUGAUUACCCUUAAAGAUCGAACAUUU
For B1, the Kd with GST-Egl512-819 [2] (label: 5'-FAM, hairpin) worked out at 158 ± 8 nM.
On to CUUGAUUGUACUUUUUAAAUUAAUUCUUAAAAAUACAAAUUAAG (structured_RNA) [K10-b1as], for which, in the data set with GST-Egl512-819 [3] (hairpin), the concentration for half-maximal inhibition (IC50) was determined as 63 ± 1 nM.
Still for that read-out and setting: for AUUGAUUGUACUUUUUAAAUUAAUUCUUAAAAAUACAAAUUAAU (structured_RNA) [K10-b1as-AU] the value was 87 ± 8 nM.

B2: dsDNA (dsDNA)
DNA 1: AGGCAGTTTCTGGTACTCAG
DNA 2: CTGAGTACCAGAAACTGCCT
Take B2: the IC50 in the data set with GST-Egl512-819 [3] (blunt) was 8890 ± 933 nM.
In the case of GGCUUGAUUGUAUUUUUAAAUUAAUUCUUAAAAACUACAAAUUAAGCC (structured_RNA) [K10-2GC], the half-inhibitory concentration (IC50) in the data set with GST-Egl512-819 [3] (hairpin with two bulges) is 57 ± 6 nM.

B3: dsRNA (dsRNA)
RNA 1: UGAGUGCCAGAAGCUGCCUC
RNA 2: GAGGCAGCUUCUGGCACUCA
On to B3, for which the Kd with GST-Egl512-819 [2] (blunt) came out at 192 ± 7 nM.
For ACAUGAGGAUUACCCAUGU (structured_RNA) [MS2 stem loop], the IC50 with GST-Egl512-819 [3] (hairpin) was 142 ± 13 nM.

B4: ARF1 dsRNA (dsRNA)
RNA 1: UGAGUGCCAGAAGCUGCCUC
RNA 2: GAGGCAGUUUCUGGUACUCA
With B4, in the data set with GST-Egl512-819 [3] (blunt, with G-U wobbles), the IC50 was found to be 102 ± 14 nM.
On to GAAUUAAACAUCAAAAAUUCUUAAUUAAAUUUUUAUGUUAGUUC (structured_RNA) [K10-as], for which the Kd in the data set with GST-Egl512-819 [2] (setting [5]) is 102 ± 6 nM.

B5: bcd_VbL (structured_RNA)
RNA: GGGCCCAAAAUGAAAAAUGUUUCUCUUGGGCGUAAUCUCAUACAAUGAUUACCCUUAAAGAUCGAACAUUUAAACAAUAAUAUUUGGG
On to B5, for which the Kd with GST-Egl512-819 [2] (setting [5]) stood at 123 ± 13 nM. The IC50 with GST-Egl512-819 [3] (setting [5]) came to 31 ± 5 nM.

B6: K10-flank (K10-10nt) (structured_RNA)
RNA: CUUGAUUGUAUUUUUAAAUUAAUUCUUAAAAACUACAAAUUAAGAUCACUCUGU
On to B6, for which the IC50 in the data set with GST-Egl512-819 [3] (label: 5'-FAM in direct assay, hairpin, 3' overhang 10 nt) was determined as 53 ± 2 nM. For the same molecule, the Kd with GST-Egl512-819 [4] came to 92 ± 13 nM.
Regarding AUAUAUAUAUAUAUAUAUAU (ssRNA) [ssRNA (AU20)], the Kd in the data set with GST-Egl512-819 [2] (label: 5'-FAM) worked out at 137 ± 8 nM.
Regarding CUUGAUUGUAUUUUUAAAUUAAUUCUUAAAAACUACAAAUUAAG (structured_RNA) [K10 TLS (unlabeled)], the IC50 in the data set with GST-Egl512-819 [3] (hairpin with two bulges) came out at 53 ± 4 nM.
Turning to AUUGAUUGUAUUUUUAAAUUAAUUCUUAAAAACUACAAAUUAAU (structured_RNA) [K10-AU], the IC50 with GST-Egl512-819 [3] (hairpin) came out at 67 ± 4 nM.
Consider UUUUUUUUUUUUUUUUUUUU (ssRNA) [ssRNA (U20)], for which the Kd with GST-Egl512-819 [2] (label: 5'-FAM) came out at 175 ± 3 nM.
